These results are taken from the nanobody polyreactivity screen of Harvey et al. (2022).

The data set is described as follows: yeast display, Sf9 membrane polyspecificity reagent, FACS + sequencing; frameworks hold sequencing errors. The procedure, abridged: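 Nanobodies came from a synthetic yeast display library in Saccharomyces cerevisiae BJ5465, induced with galactose for 36–48 hours and stained for 1 hour at 4 °C with 10% biotinylated, detergent-solubilized Sf9 membrane reagent. Cells were enriched on streptavidin microbeads and then FACS-sorted, with low and high (top ~1%) gates set on anti-HA fluorescence for expression and streptavidin fluorescence for reagent binding. Each polyreactivity label reflects the gate a clone came from. Genes were amplified by colony PCR, sequenced by MiSeq 2 × 250 and filtered by CDR length.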
For the sequence “QVQLLESGGGLVQAGGSLRLSCAASGSSFSHYTMGWYRQAPGKERELVAAINYGGASTYYADSVKGRFTISRDNAKNTVYLQMNSLKPEYTAVYYCAAANRPSEQDNYWGQGTQVTVSS”, the “polyreactivity (PSR sort gate)” value is “low polyreactivity”.
Turning to “QVQLLESGGGLVQAGGSLRLSCAASGSTFGVYAMGWYRQAPGKEREFVAAINARGTRTRYADSVKGRFTISRDNAKNTVYLQMNSLKPDDTAVYYCAAVWYGYYSIDTYGYWGQGTQVTVSS”, the “polyreactivity (PSR sort gate)” value is “high polyreactivity”.
For “QVQLLESGGGLVQAGGSLRLSCAASGSTFNVYAMGWYRQAPGKERELVAAINWSGGNTYYADSVKGRFTISRDNAKNTVYLQMNSLNPEDTAVDYCNADGFVGTPSVDYDYWGQGTQVTVSS”, the “polyreactivity (PSR sort gate)” value was “low polyreactivity”.
Turning to “QVQLLESGGGLVQAGGSLRLSCAASGSTFQRYVMGWYRQAPGKERELVATITKSGGSTYYADSVKGRFTISRDIAKNTVYLQMNSLKPEDTAVYNCAAYLQWAFRGYYHWGQGTQVTVTS”, the “polyreactivity (PSR sort gate)” value is listed as “high polyreactivity”.
For the sequence “QVQLLESGGGLVQAGGSLRLSCAASGSTFYFNAMGWYSQAPGKDSELVAGIRYSGSSTYYADSVKGRFTISRDNAKNTVYLQMHSLKPEDTAVYYCAASLWRWRFSRFGYWGQGTQVTVSS”, the “polyreactivity (PSR sort gate)” value is given as “high polyreactivity”.
The result for “QVQLLESGGGLVQAGGSLRLSCAASGSTFYINTMGWSRQAPGKERELVAAISWTGGRTYYADSVKGRFTISRDNAKNTVYLQMHSLKPEDTAVYYCAAYYNIPDRRRVGYDYWGQGTQVTVSS” reads “high polyreactivity”; that for “QVQLLESGGGLVQAGGSLRLSCAASGYFFSDNTMGWYRQAPGKERELVAAITSGGSSYYADSVKGGFTISRDIAKNTVYLQMNSLKQEDTAVYYCDKDVLHVRRVSGQYYSVDYWGQGTQVTVSS”, “low polyreactivity”; that for “QVQLLESGGGLVQAGGSLRLSCAASGYNFGNYAMGWYRQAPGKERELVAAITSRGGRTYYADSVKGRFTISRDNAKNSFYLQMNSLIPVDTGVYYCYRAVTTKDGYWGQCTQVTVSS”, “high polyreactivity”.
Turning to “QVQLLESGGGLVQAGGSLRLSCAATGRIFFYGMGWYRQAPGNETELVATITSVSNTYYADSVKGRFTISRDNAKNTGYLLMNSLKPEDTAVYYCAARPDRYRYRYGYWGQGTQVTVSS”, the “polyreactivity (PSR sort gate)” value was “high polyreactivity”.
Consider “QVQLLESGGGLVQAGGSLRLSCAPSGFTFLYYAMGWYIQAPGKERELVAVISRSGGRTYYADSVKGRFTISRDNAKNTVYLLMNSLKPEDTAVYYCAAALGVALNDYWGQGTQVNVSS”, for which the “polyreactivity (PSR sort gate)” value is “high polyreactivity”.
As to “QVQLLESGGGLVQAGGSLRLSCAPSGRIFGYYAMGWYRQEPGKERELVAAISRGGSTNYADSVKGRFTISRDNAKNTVYLQMNSLKPEDTAVYYCAALVYRSYNNYYWGQGTQVTVSS”, the “polyreactivity (PSR sort gate)” value is “high polyreactivity”.
On to “QVQLLESGGGLVQAGGSLRLSSAASGRIFLGYTMGWYRPAPGNERELVAAIRLSGGTTRYADSVKGRFTISRDNAKNTVYLQMYSLKPEDTAVYYCAARDRRTYSLYYWGQGSQVTVSS”, for which the “polyreactivity (PSR sort gate)” value was “high polyreactivity”.
With “QVQLLESGGGLVQAGRSLRLSCAASGRIFVYYAMGWYRQAPGQERELVATISWSGGSTYYADSVKGRFTISRDNAKNTVYLELNSLKPEDTAVYYCAAEKYISYYSVKRQENGYWGQGSQVTVSS”, the “polyreactivity (PSR sort gate)” value is given as “low polyreactivity”.
The result for “QVQLLESGVGLVQAGGILRLSCAASGITFSRYTMGWYRQAPGKERELVAANSSAGNTYYADSVNGRFTISRDNAKNTVYLQMNSLKPEDTAVYYCAREYTYYPRWVGYDAYGEDYWGQGTQVTVSS” reads “low polyreactivity”; that for “QVQLLESRGGLVQAGGSLRLSCAASGSNFDVYDMGWYRQAPGKERELVACISWDGDRTYYADSVKGRFTISRDNAKNTVYLQMKSLKPEDTAVYYCAVDSASDTIYDYWGQGTQVTVSS”, “low polyreactivity”.
The entry for “QVQLLESVGGLDQAGGSLRLSCAASGRTFKVYAMGWYRKATVKERELVAAISFSGGTTYYADSVKGRFTISRDNAKNTVYLQMNSLKQEDTAVSYCAAKRYGEYRARGYYYWGQGTQVTVSS” is “high polyreactivity”.
Turning to “QVQLLESVGGLVQAGGSLRLSCDASGYTYCGYAMGSYRQAPGKERELVAAISRSGGSTYYADTVKGRFTISRDHAKNTVYLQMNSLKPEDTAVYYCNARTEDYDGANNYWGHGTQVTVSS”, the “polyreactivity (PSR sort gate)” value is recorded as “low polyreactivity”.
Turning to “QVQLLETGGGLVQAGGSLRLSCAPSGFTIYRYAMGWYKQAPGKERELVAAISSGTSTYYADTVKGRFTISRDNAKKTVYLQINSLKPEVTEVYYCAVAGVSLYGTLYDYWGLGTQVTVSS”, the “polyreactivity (PSR sort gate)” value is reported as “high polyreactivity”.
The entry for “QVQLLETGGGLVQAGGSLRLSCAPSGRIFRQYVMGWSRQAPGKERELVAAISRSGGTTYYADSVKGRFTISRDNAKNTVYLQMNILKPEDTAVYYCAASFRGQIVGYWGQGTQVTLSS” is “high polyreactivity”; for “QVQLQDSGGGLVQAGGSLRLSCAASGTIIWYSDLGWYRQAPGKERKFVAGIGFGSNSNFADSVRGRFTISRDNAKITVYLQMNSLKPEDTAVYYCEAVWFDYSTHRYWGQGTQVTVCS” it is “high polyreactivity”; for “QVQLQDSGGGLVQAGGSLRQRCAASGYISSLAAMGWYRQAPGKERDLVAGNDLGTITNYADSVKGSLTISRDNAKNTVYLQMNSLIPEDTAVYYCAPTWYYHYNDWKHWYEYGYWGQGTQVTVSS” it is “low polyreactivity”.
Take “QVQLQEGGGGLVQAGGSLRLSCAASGYIFNGDWKGWYRQAPGKERELVATINYGATTNYADSVKGRFTISRDNAKNTVYLQMNSLKPEDTAVYYCAVGGHGAQLYVYWGQGTQVTVSN”: the “polyreactivity (PSR sort gate)” value is given as “high polyreactivity”.
The entry for “QVQLQERAAWCRRAGSLRLSCAASGNISDYYFMGWYRQAPGKERELVAAIAPGSNTYYADSVKGRFTISRDNAKNTVYLQMNSLKPEDTAVCFCAANSTQYSWFDYWGQGTQVPVSS” is “low polyreactivity”.
For “QVQLQERGGGLVQAGGSLRLTCAASGTISDSGLMGWYRQAPGKERELVAGISSGGITNYADSVKGRFTISRDNANNTVYLQMNSLKPEDNAVFWGQGSQVTVSS”, the “polyreactivity (PSR sort gate)” value is “low polyreactivity”.
Regarding “QVQLQERGGGLVQVGGSKRLSCAASGNIFYNYSMGWYRHAQGKEREFDDTINHGTSINYADSVKGRFTISRDKATNTGYLEMNSLKPEDTAVFYCAADRSWTDNLFYWGQGSQVTVSS”, the “polyreactivity (PSR sort gate)” value is given as “low polyreactivity”.
For the sequence “QVQLQESAGGLVQAGGSLRRSCAASGSIFSNCAMGWYRQTPGKERELVASITAGGNNNYADSVKGRFTISRDNAKNTVYLPMNSLKPEETAVYYCNRRYPGPDSFEHYYYYRYDYWGQGTQVTVSS”, the “polyreactivity (PSR sort gate)” value is “low polyreactivity”.
Turning to “QVQLQESAGGRQPAPELRGERLYFWLLLMGWYRQAPGEERELVAGINYGASTNYSDSVKGRFTISRDNARNTVYLKMNSLKPGDTAVYYCAVWQPVLIWFYYWGQGTQVTVSS”, the “polyreactivity (PSR sort gate)” value is “high polyreactivity”.
Turning to “QVQLQESCGGLVQVGGSLRLSCAASVTIFIYGFLGWYRQAPGKERELVASINLGGITNYADSVKGRFTISRDNANNTVYLQMISLKPEDTAVYYCAAYVVTGQNYGYWGQGTQVTVSS”, the “polyreactivity (PSR sort gate)” value is listed as “low polyreactivity”.
On to “QVQLQESDGGLVQAGGSLRLSCAASGSISPQYYRGWYRQAPGKEREFVAISKGTSTYYADSVKGRLTISRVNAKNTVYLQMNSLKPEDTAVYCCAAGRWLQKVHAYWDQGTQVTVSS”, for which the “polyreactivity (PSR sort gate)” value was “low polyreactivity”.
Consider “QVQLQESGDGLVQAGGSLRLSSAASGTIFSDYGMGGYRQAPGKERELLAGISDGCNTNYTDSVKGRFTISRDNAHRVSADELPETGVYRGVLLRGCERWLLFYVYWGQGTQVTVSS”, for which the “polyreactivity (PSR sort gate)” value is “high polyreactivity”.
The result for “QVQLQESGDGLVQAVGSLRLSCAASGYISGKYYMGWYRKAPGNERGLLDGIDACGSRTNYADCVKGRFTISRDNAHNTVYLQMNSLKPEDTAVYYCAARPDGDRLFSYWGQGTQVPVSS” reads “low polyreactivity”; that for “QVQLQESGGGLAQAGGCLRLSCAASGTIFPADSMGWYRQAPGIERELVAGITSGANTYYADSVKGRFTISHDNAKNTVYLQMDSLIPEDIAVYYCAAPGSSTYDLEYWGQGTQGTVSS”, “high polyreactivity”.
“QVQLQESGGGLAQAGGSLRLSCAASGTIFPADSMGWYRQAPGKERELVAGITSGANTYYADSVKGRFTISHDNAKYTVYLQMDSLIPEDIAVYYCAAPGSSTYDLEYWGQGTQVTVSS”: the “polyreactivity (PSR sort gate)” value is reported as “high polyreactivity”.
With “QVQLQESGGGLEPAGGSLRLSCAASGTISVHASMGWYRQAPGKERELVAGITDGANTYYADSVKGRFTISRDNSKNTVYLQMNSLKPEDTAVYYCAAYYGTAFHFTYWCQGTQVTVSS”, the “polyreactivity (PSR sort gate)” value is “low polyreactivity”.
Consider “QVQLQESGGGLEQAGGSLRLSCAASGYISDIGTMGWYRQAPGKEREFVATIVVGSTTNYADSVKGRFTISRDNAKNTVYLQPQSGRYRGVLLRAWLLAVGKFTYWGQGTQETVSS”, for which the “polyreactivity (PSR sort gate)” value is “low polyreactivity”.
The entry for “QVQLQESGGGLLQADGSLRLSCAASGTIFTQSYMGWYRQAPGKEREFVAGISNGTNTNYGDSVKGRFTISRDNAKNTVYLQMNSLKLEDTAVYYCAVKGFYVDVLAYWGQGTHVTVSS” is “high polyreactivity”; for “QVQLQESGGGLLQAGGSLRLSCAASGIIFDNPNKGWYRQAPGKERDLVATINSGATTNYADSVKGRFTISRDNAKNTVYLQMNSLIPVDTAVYYCAVDLSPTYFYYWGQGTQVTVSS” it is “high polyreactivity”.
Regarding “QVQLQESGGGLMQAGGSQRLSCAASGSISYYSDMAWYRQAPGKEREFVAGIGYGTSTNYADSVKGRFTTSRDNAKNTVYLQMISMKPEDTAVYYCAAYQGNGYEFYYWGQGTQVTVRS”, the “polyreactivity (PSR sort gate)” value is on record as “low polyreactivity”.
The result for “QVQLQESGGGLMQAGGSQRLSCAASGSISYYSDMGWYPQAPGKEREFVAGIGYGTTTNYADSVKGRFTTSRDNAKNTVYMQMISMKPEDTAVYYCAAYQGNGYEFYYWGQGTQVTVRS” reads “low polyreactivity”; that for “QVQLQESGGGLVKAGGSLRLSCAASGYLILQYAMGWYRPAPGKERELVASIARGTSTYYADSVKGRFTISRDNAKNTVYLQMNSLKPEDTAVYYCAVIYSWGLWHDYWGQGTQVTVSS”, “high polyreactivity”; that for “QVQLQESGGGLVLAGGSLRLSCADSGYISWSFTMVWYRKAPGKEREFVAGITYGGITYYADSVKGRFTISRDNAKNTVYLQMNSLKPEDTAVYYCAAPQTYPYVYVYWGQGTQLTVSS”, “high polyreactivity”.
